Test results reported in patent US6348573B1, “Compositions and methods for identifying apoptosis signaling pathway inhibitors and activators” (The Regents of the University of Michigan, priority 1998, dated 2002).

B1: CIDE-B: cell death-inducing DFF45-like effector B, mouse protein of 219 amino acids (protein, listed as Mus musculus)
chain: MEYLSAFNPNGLLRSVSTVSSELSRRVWNSAPPPQRPFRVCDHKRTVRKGLTAASLQELLDKVLETLLLRGVLTLVLEEDGTAVDSEDFFQLLEDDTCLMVLEQGQSWSPKSGMLSYGLGREKPKHSKDIARITFDVYKQNPRDLFGSLNVKATFYGLYSMSCDFQGVGPKRVLRELLRGTSSQLQGLGHMLLGISSTLRHVVEGADRWQWHGQRHLHS
B2: DFF45: 45 kDa subunit of the DNA fragmentation factor (protein, UniProt O00273 1-331, looked up)
DNA fragmentation factor …: MEVTGDAGVPESGEIRTLKPCLLRRNYSREQHGVAASCLEDLRSKACDILAIDKSLTPVTLVLAEDGTIVDDDDYFLCLPSNTKFVALASNEKWAYNNSDGGTAWISQESFDVDETDSGAGLKWKNVARQLKEDLSSIILLSEEDLQMLVDAPCSDLAQELRQSCATVQRLQHTLQQVLDQREEVRQSKQLLQLYLQALEKEGSLLSKQEESKAAFGEEVDAVDTGISRETSSDVALASHILTALREKQAPELSLSSQDLELVTKEDPKALAVALNWDIKKTETVQEACERELALRLQQTQSLHSLRSISASKASPPGDLQNPKRARQDPT

Tests used:
SHEP cells = assay: Apoptosis in SHEP cells; type: cell-based; details: data not shown
293T cells [1] = assay: Apoptosis assay, CIDE transfection; type: cell-based, human; details: 293T cells
Method: Apoptosis Assays, fluorescence staining of nuclear DNA and DNA fragmentation assay: 5×10^5 293T cells were co-transfected with 0.2 μg of pcDNA3-β-gal plus each expression plasmid in triplicate by the calcium phosphate method as reported [N. Inohara et al, “CLARP, a death effector domain-containing protein interacts with caspase-8 and regulates apoptosis,” Proc. Natl. Acad. Sci. USA 94:10717-10722 (1997a)].
MCF7 were cotransfected with vector control or CIDE-A and β-galactosidase-expressing reporter construct by Lipofectamine (Gibco BRL) according to the manufacturer's instructions. In some experiments, 20 μM zVAD-fmk (benzyloxycarbonyl-Val-Ala-Asp-(OMe)-fluoromethylketone), zFA-fmk (benzyloxycarbonyl-Phe-Ala-(OMc)-fluoromethylketone) and zDEVD-fmk (benzyloxycarbonyl-Asp-Glu-Val-Asp-(OMe)-fluoromethylketone) were added into medium at 8 hr after transfection. zFA-fmk, zVAD-fmk and zDEVD-fmk were obtained from Enzyme Systems. At 24 hours after transfection, cells were fixed, stained for β-galactosidase as described [N. Inohara et al., “CLARP, a death effector domain-containing protein interacts with caspase-8 and regulates apoptosis,” Proc. Natl. Acad. Sci. USA 94:10717-10722 (1997a)] and assayed for morphological features of apoptosis. At least 300 hundred blue-staining cells were counted. Statistical significance was determined by one-way ANOVA followed by Student-Neuman-Keuls post-doc comparisons.
(§1) Nuclear staining with acridine-orange was performed as described [N. Inohara et al., “harakiri, a novel regulator of cell death, encodes a protein that activates apoptosis and interacts selectively with survival-promoting proteins Bcl-2 and Bcl-XL.,” EMBO J. 16:1686-1694 (1997b)]. Genomic DNA was extracted and analyzed for DNA fragmentation as described [X. Liu et al., “Apaf-1, a human protein homologous to C. elegans CED-4, participates in cytochrome c-dependent activation of caspase-3,” Cell 90:405-413 (1997)].

293T cells [2] = assay: DNA fragmentation assay; type: cell-based, human; details: co-expression
Method: as §1

Molecule | induction of apoptosis in SHEP cells (SHEP cells) | induction of apoptosis (killing) of 293T cells by expression (293T cells [1]) | DNA fragmentation induced by CIDE-A (293T cells [2]) | apoptosis induced by CLARP (293T cells [1]; co-expression) | apoptosis induced by Fas (293T cells [1]; co-expression) | apoptosis of the CIDE-A (108-199) mutant (293T cells [1]; co-expression) | killing activity of CIDE-A (293T cells [1]; co-expression) | killing activity of CIDE-B (293T cells [1]; co-expression)
B1 | induced apoptosis | induced significant killing of 293T cells in a dose dependent manner |  |  |  |  |  | 
B2 |  | did not induce apoptosis | inhibited | inhibited | inhibited | not inhibited | inhibited significantly | inhibited significantly
